Earlier results as cited in article PMC4964448.

Experiments:
PSGL-1 (Homo sapiens) = PSGL-1 (Homo sapiens) (UniProt Q14242)
MMP9 (Homo sapiens) = MMP9 (Homo sapiens) (UniProt P14780)
Chain of UniProt P14780 (P14780 94-707): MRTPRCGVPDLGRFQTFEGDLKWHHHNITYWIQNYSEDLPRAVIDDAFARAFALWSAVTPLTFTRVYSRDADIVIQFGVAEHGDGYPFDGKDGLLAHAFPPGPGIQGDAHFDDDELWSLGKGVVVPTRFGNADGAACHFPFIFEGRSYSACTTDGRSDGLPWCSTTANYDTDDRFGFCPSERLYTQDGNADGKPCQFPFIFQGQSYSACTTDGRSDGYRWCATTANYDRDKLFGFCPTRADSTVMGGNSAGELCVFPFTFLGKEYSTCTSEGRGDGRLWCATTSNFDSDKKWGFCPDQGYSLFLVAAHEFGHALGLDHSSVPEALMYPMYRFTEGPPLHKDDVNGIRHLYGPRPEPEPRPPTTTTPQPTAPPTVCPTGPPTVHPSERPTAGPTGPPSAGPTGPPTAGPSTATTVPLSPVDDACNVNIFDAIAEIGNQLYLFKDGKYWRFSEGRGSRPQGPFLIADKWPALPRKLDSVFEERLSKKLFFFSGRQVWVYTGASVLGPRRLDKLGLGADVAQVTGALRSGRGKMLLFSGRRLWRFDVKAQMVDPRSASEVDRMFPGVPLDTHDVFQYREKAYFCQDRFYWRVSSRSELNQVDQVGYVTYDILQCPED

Chain of UniProt Q14242 (Q14242 42-320): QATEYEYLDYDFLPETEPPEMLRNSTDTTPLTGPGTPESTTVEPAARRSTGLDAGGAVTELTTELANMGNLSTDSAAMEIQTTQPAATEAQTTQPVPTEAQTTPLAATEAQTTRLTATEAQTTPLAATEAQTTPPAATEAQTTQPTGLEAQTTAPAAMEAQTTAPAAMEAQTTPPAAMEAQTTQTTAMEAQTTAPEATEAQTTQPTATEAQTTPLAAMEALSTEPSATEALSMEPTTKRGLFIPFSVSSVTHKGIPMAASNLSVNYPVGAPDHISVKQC

SSL5 (from UniProt Q2G1S6)
Kd (PSGL-1 (Homo sapiens)): 820 nM
Kd (MMP9 (Homo sapiens)): 1.9 nM
